Test results as given in paper PMC5454376 (2017).

B1: Human His-Gαi3 WT [human] / Fluorescein-labelled RGS12 GoLoco peptide (residues 1,185–1,221) [modified: 5,6-carboxyfluorescein coupled to the resin-bound peptide after chain elongation; 5,6-carboxyfluorescein coupled to the resin-bound … (parent complex)
chain 1: MGCTLSAEDKAAVERSKMIDRNLREDGEKAAKEVKLLLLGAGESGKSTIVKQMKIIHEDGYSEDECKQYKVVVYSNTIQSIIAIIRAMGRLKIDFGEAARADDARQLFVLAGSAEEGVMTPELAGVIKRLWRDGGVQACFSRSREYQLNDSASYYLNDLDRISQSNYIPTQQDVLRTRVKTTGIVETHFTFKDLYFKMFDVGGQRSERKKWIHCFEGVTAIIFCVALSDYDLVLAEDEEMNRMHESMKLFDSICNNKWFTETSIILFLNKKDLFEEKIKRSPLTICYPEYTGSNTYEEAAAYIQCQFEDLNRRKDTKEIYTHFTCATDTKNVQFVFDAVTDVIIKNNLKECGLY
chain 2: DEAEEFFELISKAQSNRADDQRGLLRKEDLVLPEFLR
B2: Human His-Gαi3 WT [human] / Fluorescein-labelled GIV peptide (residues 1,671–1,701) [modified: 5,6-carboxyfluorescein coupled to the resin-bound peptide after chain elongation; 5,6-carboxyfluorescein coupled to the resin-bound peptide … (parent complex)
chain 1: B1 chain 1
chain 2: KTGSPGSEVVTLQQFLEESNKLTSVQIKSSS

Variants of: B1
Assay: fluorescence polarisation

| Variant | Kd |
| --- | --- |
| chain 1 MGCTLSAEDKAAVERSKMIDRNLREDGEKAAKEVKLLLLGAGESGKSTIVKQMKIIHEDGYSEDECKQYKVVVYSNTIQSIIAIIRAMGRLKIDFGEAARADDARQLFVLAGSAEEGVMTPELAGVIKRLWRDGGVQACFSRSREYQLNDSASYYLNDLDRISQSNYIPTQQDVLRTRVKTTGIVETHFTFKDLYFKMFDVGGQRSERKKWIHCFEGVTAIIFCVALSDYDLVLAEDEEMNRMHESMKLFDSICNNKWATETSIILFLNKKDLFEEKIKRSPLTICYPEYTGSNTYEEAAAYIQCQFEDLNRRKDTKEIYTHFTCATDTKNVQFVFDAVTDVIIKNNLKECGLY [chain 1 F259A] | 187 nM |
| chain 1 MGCTLSAEDKAAVERSKMIDRNLREDGEKAAKEVALLLLGAGESGKSTIVKQMKIIHEDGYSEDECKQYKVVVYSNTIQSIIAIIRAMGRLKIDFGEAARADDARQLFVLAGSAEEGVMTPELAGVIKRLWRDGGVQACFSRSREYQLNDSASYYLNDLDRISQSNYIPTQQDVLRTRVKTTGIVETHFTFKDLYFKMFDVGGQRSERKKWIHCFEGVTAIIFCVALSDYDLVLAEDEEMNRMHESMKLFDSICNNKWFTETSIILFLNKKDLFEEKIKRSPLTICYPEYTGSNTYEEAAAYIQCQFEDLNRRKDTKEIYTHFTCATDTKNVQFVFDAVTDVIIKNNLKECGLY [chain 1 K35A] | 152 nM |

The remaining lines, values ahead:

| Kd | Variant |
| --- | --- |
| 104 nM | chain 1 MGCTLSAEDKAAVERSKMIDRNLREDGEKAAKEVKLLLLGAGESGKSTIVKQMKIIHEDGYSEDECKQYKVVVYSNTIQSIIAIIRAMGRLKIDFGEAARADDARQLFVLAGSAEEGVMTPELAGVIKRLWRDGGVQACFSRSREYQLNDSASYYLNDLDRISQSNYIPTQQDVLRTRVKTTGIVETHFTFKDLYFKMFDVGGQRSERKKWIHCFEGATAIIFCVALSDYDLVLAEDEEMNRMHESMKLFDSICNNKWFTETSIILFLNKKDLFEEKIKRSPLTICYPEYTGSNTYEEAAAYIQCQFEDLNRRKDTKEIYTHFTCATDTKNVQFVFDAVTDVIIKNNLKECGLY [chain 1 V218A] |
| 314 nM | chain 1 MGCTLSAEDKAAVERSKMIDRNLREDGEKAAKEVKLLLLGAGESGKSTIVKQMKIIHEDGYSEDECKQYKVVVYSNTIQSIIAIIRAMGRLKIDFGEAARADDARQLFVLAGSAEEGVMTPELAGVIKRLWRDGGVQACFSRSREYQLNDSASYYLNDLDRISQSNYIPTQQDVLRTRVKTTGIVETHFTFKDLYFKMFDVGGQRSERKKWIHCFEGVTAIIFCVALSDYDLVLAEDEEMNRMHESMKLFDSICNEKWFTETSIILFLNKKDLFEEKIKRSPLTICYPEYTGSNTYEEAAAYIQCQFEDLNRRKDTKEIYTHFTCATDTKNVQFVFDAVTDVIIKNNLKECGLY [chain 1 N256E] |

Variants of: B2
Assay: fluorescence polarisation

| Variant | Kd |
| --- | --- |
| chain 1 MGCTLSAEDKAAVERSKMIDRNLREDGEKAAKEVKLLLLGAGESGKSTIVKQMKIIHEDGYSEDECKQYKVVVYSNTIQSIIAIIRAMGRLKIDFGEAARADDARQLFVLAGSAEEGVMTPELAGVIKRLWRDGGVQACFSRSREYQLNDSASYYLNDLDRISQSNYIPTQQDVLRTRVKTTGAVETHFTFKDLYFKMFDVGGQRSERKKWIHCFEGVTAIIFCVALSDYDLVLAEDEEMNRMHESMKLFDSICNNKWFTETSIILFLNKKDLFEEKIKRSPLTICYPEYTGSNTYEEAAAYIQCQFEDLNRRKDTKEIYTHFTCATDTKNVQFVFDAVTDVIIKNNLKECGLY [chain 1 I184A] | 1910 nM |
| chain 1 MGCTLSAEDKAAVERSKMIDRNLREDGEKAAKEVKLLLLGAGESGKSTIVKQMKIIHEDGYSEDECKQYKVVVYSNTIQSIIAIIRAMGRLKIDFGEAARADDARQLFVLAGSAEEGVMTPELAGVIKRLWRDGGVQACFSRSREYQLNDSASYYLNDLDRISQSNYIPTQQDVLRTRVKTTGIVETHFTFKDLYFKMFDVGGQRSERKKWIHCFEGVTAIIFCVALSDYDLVLAEDEEMNRMHESMKLFDSICNNKWATETSIILFLNKKDLFEEKIKRSPLTICYPEYTGSNTYEEAAAYIQCQFEDLNRRKDTKEIYTHFTCATDTKNVQFVFDAVTDVIIKNNLKECGLY [chain 1 F259A] | 1260 nM |
| chain 1 MGCTLSAEDKAAVERSKMIDRNLREDGEKAAKEVKLLLLGAGESGKSTIVKQMKIIHEDGYSEDECKQYKVVVYSNTIQSIIAIIRAMGRLKIDFGEAARADDARQLFVLAGSAEEGVMTPELAGVIKRLWRDGGVQACFSRSREYQLNDSASYYLNDLDRISQSNYIPTQQDVLRTRVKTTGIVETHFTFKDLYFKMFDVGGQRSERKKWIHCFEGVTAIIFCVALSDYDLVLAEDEEMNRMHESMKLFDSICNNAWFTETSIILFLNKKDLFEEKIKRSPLTICYPEYTGSNTYEEAAAYIQCQFEDLNRRKDTKEIYTHFTCATDTKNVQFVFDAVTDVIIKNNLKECGLY [chain 1 K257A] | 870 nM |

Results, then the variant that gave them:

| Kd | Variant |
| --- | --- |
| 3080 nM | chain 1 MGCTLSAEDKAAVERSKMIDRNLREDGEKAAKEVKLLLAGAGESGKSTIVKQMKIIHEDGYSEDECKQYKVVVYSNTIQSIIAIIRAMGRLKIDFGEAARADDARQLFVLAGSAEEGVMTPELAGVIKRLWRDGGVQACFSRSREYQLNDSASYYLNDLDRISQSNYIPTQQDVLRTRVKTTGIVETHFTFKDLYFKMFDVGGQRSERKKWIHCFEGVTAIIFCVALSDYDLVLAEDEEMNRMHESMKLFDSICNNKWFTETSIILFLNKKDLFEEKIKRSPLTICYPEYTGSNTYEEAAAYIQCQFEDLNRRKDTKEIYTHFTCATDTKNVQFVFDAVTDVIIKNNLKECGLY [chain 1 L39A] |
| 1820 nM | chain 1 MGCTLSAEDKAAVERSKMIDRNLREDGEKAAKEVKLLLLGAGESGKSTIVKQMKIIHEDGYSEDECKQYKVVVYSNTIQSIIAIIRAMGRLKIDFGEAARADDARQLFVLAGSAEEGVMTPELAGVIKRLWRDGGVQACFSRSREYQLNDSASYYLNDLDRISQSNYIPTQQDVLRTRVKTTGIVETHFTFKDLYFKMFDVGGQRSERKKWIHCFEGVTAIIFCVALSDYDLVLAEDEEMNRMHESMKLFDSICNNKFFTETSIILFLNKKDLFEEKIKRSPLTICYPEYTGSNTYEEAAAYIQCQFEDLNRRKDTKEIYTHFTCATDTKNVQFVFDAVTDVIIKNNLKECGLY [chain 1 W258F] |
| 362 nM | chain 1 MGCTLSAEDKAAVERSKMIDRNLREDGEKAAKEVKLLLLGAGESGKSTIVKQMKIIHEDGYSEDECKQYKVVVYSNTIQSIIAIIRAMGRLKIDFGEAARADDARQLFVLAGSAEEGVMTPELAGVIKRLWRDGGVQACFSRSREYQLNDSASYYLNDLDRISQSNYIPTQQDVLRTRVKTTGIVETHFTFKDLYFKMFDVGGQRSERKKWIHCFEGATAIIFCVALSDYDLVLAEDEEMNRMHESMKLFDSICNNKWFTETSIILFLNKKDLFEEKIKRSPLTICYPEYTGSNTYEEAAAYIQCQFEDLNRRKDTKEIYTHFTCATDTKNVQFVFDAVTDVIIKNNLKECGLY [chain 1 V218A] |
| 706 nM | chain 1 MGCTLSAEDKAAVERSKMIDRNLREDGEKAAKEVKALLLGAGESGKSTIVKQMKIIHEDGYSEDECKQYKVVVYSNTIQSIIAIIRAMGRLKIDFGEAARADDARQLFVLAGSAEEGVMTPELAGVIKRLWRDGGVQACFSRSREYQLNDSASYYLNDLDRISQSNYIPTQQDVLRTRVKTTGIVETHFTFKDLYFKMFDVGGQRSERKKWIHCFEGVTAIIFCVALSDYDLVLAEDEEMNRMHESMKLFDSICNNKWFTETSIILFLNKKDLFEEKIKRSPLTICYPEYTGSNTYEEAAAYIQCQFEDLNRRKDTKEIYTHFTCATDTKNVQFVFDAVTDVIIKNNLKECGLY [chain 1 L36A] |
| 243 nM | chain 1 MGCTLSAEDKAAVERSKMIDRNLREDGEKAAKEVKLLLLGAGESGKSTIVKQMKIIHEDGYSEDECKQYKVVVYSNTIQSIIAIIRAMGRLKIDFGEAARADDARQLFVLAGSAEEGVMTPELAGVIKRLWRDGGVQACFSRSREYQLNDSASYYLNDLDRISQSNYIPTQQDVLRTRVKTTGIVETHFTFKDLYFKMFDVGGQRSERKKWIHCFEGVTAIIFCVALSDYDLVLAEDEEMNRMHESMKLFDAICNNKWFTETSIILFLNKKDLFEEKIKRSPLTICYPEYTGSNTYEEAAAYIQCQFEDLNRRKDTKEIYTHFTCATDTKNVQFVFDAVTDVIIKNNLKECGLY [chain 1 S252A] |
| 478 nM | chain 1 MGCTLSAEDKAAVERSKMIDRNLREDGEKAAKEVKLALLGAGESGKSTIVKQMKIIHEDGYSEDECKQYKVVVYSNTIQSIIAIIRAMGRLKIDFGEAARADDARQLFVLAGSAEEGVMTPELAGVIKRLWRDGGVQACFSRSREYQLNDSASYYLNDLDRISQSNYIPTQQDVLRTRVKTTGIVETHFTFKDLYFKMFDVGGQRSERKKWIHCFEGVTAIIFCVALSDYDLVLAEDEEMNRMHESMKLFDSICNNKWFTETSIILFLNKKDLFEEKIKRSPLTICYPEYTGSNTYEEAAAYIQCQFEDLNRRKDTKEIYTHFTCATDTKNVQFVFDAVTDVIIKNNLKECGLY [chain 1 L37A] |

Variants of: B2
Assay: fluorescence polarisation
Remark: another data set of the same source

| Kd | Variant |
| --- | --- |
| 800 nM | chain 1 MGCTLSAEDKAAVERSKMIDRNLREDGEKAAKEVKLLLLGAGESGKSTIVKQMKIIHEDGYSEDECKQYKVVVYSNTIQSIIAIIRAMGRLKIDFGEAARADDARQLFVLAGSAEEGVMTPELAGVIKRLWRDGGVQACFSRSREYQLNDSASYYLNDLDRISQSNYIPTQQDVLRTRVKTTGIVETHFTFKDLYFKMFDVGGQRSERKKWIHCFEGVTAIIFCVALSDYDLVLAEDEEMNRMHESMKLFDSICNNKWFTETSIILFLNKKDLFEEKIKRSPLTICYPEYTGSNTYEEAAAYIQCQFEDLNRAKDTKEIYTHFTCATDTKNVQFVFDAVTDVIIKNNLKECGLY [chain 1 R313A] |
| 510 nM | chain 1 MGCTLSAEDKAAVERSKMIDRNLREDGEKAAKEVKLLLLGAGESGKSTIVKQMKIIHEDGYSEDECKQYKVVVYSNTIQSIIAIIRAMGRLKIDFGEAARADDARQLFVLAGSAEEGVMTPELAGVIKRLWRDGGVQACFSRSREYQLNDSASYYLNDLDRISQSNYIPTQQDVLRTRVKTTGIVETHFTFKDLYFKMFDVGGQRSERKKWIHCFEGVTAIIFCVALSDYDLVLAEDEEMNRMHESMKLFDSICNNKWFTETSIILFLNKKDLFEEKIKRSPLTICYPEYTGSNTYEEAAAYIQCQFEDLNRRKDTWEIYTHFTCATDTKNVQFVFDAVTDVIIKNNLKECGLY [chain 1 K317W] |
| 590 nM | chain 1 MGCTLSAEDKAAVERSKMIDRNLREDGEKAAKEVKLLLLGAGESGKSTIVKQMKIIHEDGYSEDECKQYKVVVYSNTIQSIIAIIRAMGRLKIDFGEAARADDARQLFVLAGSAEEGVMTPELAGVIKRLWRDGGVQACFSRSREYQLNDSASYYLNDLDRISQSNYIPTQQDVLRTRVKTTGIVETHFTFKDLYFKMFDVGGQRSERKKWIHCFEGVTAIIFCVALSDYDLVLAEDEEMNRMHESMKLFDSICNNKWFTETSIILFLNKKDLFEEKIKRSPLTICYPEYTGSNTYEEAAAYIQCQFEDLNRRKDTAEIYTHFTCATDTKNVQFVFDAVTDVIIKNNLKECGLY [chain 1 K317A] |
